Source: patent publication EP4663654A1 (Hangzhou Sciwind Biosciences Co., Ltd., dated 2025)
Blank lines part the entries; values can stand above or below the binder they belong to. Starred links: 1 amine or outer side, 2 acyl side, 3 side chain; linkers in the order of their positions; H or OH if unused. Non-standard residues stand in square brackets, D forms with d. *: point of attachment. C20 diacid = O=C(O)CCCCCCCCCCCCCCCCCCC(=O)*; γGlu = O=C(O)[C@H](CCC(=O)[*:2])N[*:1]; Hyp = O=C(O)[C@@H]1C[C@@H](O)CN1

Biological target: T1, human amylin receptor (AMY3) on CHO-K1/Ga15/AMY3 amylin receptor/CRE-luc cells (human, UniProt P30988 25-474; O60896 24-148)
T1 sequence (looked up) 1: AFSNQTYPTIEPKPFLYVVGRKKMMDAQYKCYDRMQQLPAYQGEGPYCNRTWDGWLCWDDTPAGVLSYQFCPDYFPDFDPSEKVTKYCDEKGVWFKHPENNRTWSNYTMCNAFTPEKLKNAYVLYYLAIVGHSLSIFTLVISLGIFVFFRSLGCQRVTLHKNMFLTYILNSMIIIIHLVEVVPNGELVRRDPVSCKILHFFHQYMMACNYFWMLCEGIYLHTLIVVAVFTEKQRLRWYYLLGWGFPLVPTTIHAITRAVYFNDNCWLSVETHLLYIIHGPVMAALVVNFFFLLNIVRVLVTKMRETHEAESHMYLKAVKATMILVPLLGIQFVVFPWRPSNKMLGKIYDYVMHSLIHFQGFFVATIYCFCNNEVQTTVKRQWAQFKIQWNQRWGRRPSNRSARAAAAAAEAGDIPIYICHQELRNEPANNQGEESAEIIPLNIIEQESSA
T1 sequence (looked up) 2: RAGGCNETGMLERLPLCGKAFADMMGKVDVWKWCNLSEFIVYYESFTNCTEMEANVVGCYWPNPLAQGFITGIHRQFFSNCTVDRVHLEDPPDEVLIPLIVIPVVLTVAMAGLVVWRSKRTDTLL
Test: cell-based or functional assay

B3: polypeptide derivative M46 (peptide)
peptide: {C20 diacid-γGlu}-ASQLSTAATQRLADFLRHSSQNLKPILPPTNVGSNT[Hyp]-NH2
SMILES: CC[C@H](C)[C@H](NC(=O)[C@@H]1CCCN1C(=O)[C@H](CCCCN)NC(=O)[C@H](CC(C)C)NC(=O)[C@H](CC(N)=O)NC(=O)[C@H](CCC(N)=O)NC(=O)[C@H](CO)NC(=O)[C@H](CO)NC(=O)[C@H](Cc1c[nH]cn1)NC(=O)[C@H](CCCNC(=N)N)NC(=O)[C@H](CC(C)C)NC(=O)[C@H](Cc1ccccc1)NC(=O)[C@H](CC(=O)O)NC(=O)[C@H](C)NC(=O)[C@H](CC(C)C)NC(=O)[C@H](CCCNC(=N)N)NC(=O)[C@H](CCC(N)=O)NC(=O)[C@@H](NC(=O)[C@H](C)NC(=O)[C@H](C)NC(=O)[C@@H](NC(=O)[C@H](CO)NC(=O)[C@H](CC(C)C)NC(=O)[C@H](CCC(N)=O)NC(=O)[C@H](CO)NC(=O)[C@H](C)NC(=O)CC[C@H](NC(=O)CCCCCCCCCCCCCCCCCCC(=O)O)C(=O)O)[C@@H](C)O)[C@@H](C)O)C(=O)N[C@@H](CC(C)C)C(=O)N1CCC[C@H]1C(=O)N1CCC[C@H]1C(=O)N[C@H](C(=O)N[C@@H](CC(N)=O)C(=O)N[C@H](C(=O)NCC(=O)N[C@@H](CO)C(=O)N[C@@H](CC(N)=O)C(=O)N[C@H](C(=O)N1C[C@H](O)C[C@H]1C(N)=O)[C@@H](C)O)C(C)C)[C@@H](C)O
EC50/nM, CRE-luciferase reporter in amylin receptor/CRE-luc CHO cells: 0.06 nM
Relative activity (the EC50 ratio of Cagrilintide to the compound): 150%

B5: polypeptide derivative M47 (peptide)
peptide: {C20 diacid-γGlu}-ASQLSTAATQRLADFLRHSSENLKPILPPTNVGSNT[Hyp]-NH2
SMILES: CC[C@H](C)[C@H](NC(=O)[C@@H]1CCCN1C(=O)[C@H](CCCCN)NC(=O)[C@H](CC(C)C)NC(=O)[C@H](CC(N)=O)NC(=O)[C@H](CCC(=O)O)NC(=O)[C@H](CO)NC(=O)[C@H](CO)NC(=O)[C@H](Cc1c[nH]cn1)NC(=O)[C@H](CCCNC(=N)N)NC(=O)[C@H](CC(C)C)NC(=O)[C@H](Cc1ccccc1)NC(=O)[C@H](CC(=O)O)NC(=O)[C@H](C)NC(=O)[C@H](CC(C)C)NC(=O)[C@H](CCCNC(=N)N)NC(=O)[C@H](CCC(N)=O)NC(=O)[C@@H](NC(=O)[C@H](C)NC(=O)[C@H](C)NC(=O)[C@@H](NC(=O)[C@H](CO)NC(=O)[C@H](CC(C)C)NC(=O)[C@H](CCC(N)=O)NC(=O)[C@H](CO)NC(=O)[C@H](C)NC(=O)CC[C@H](NC(=O)CCCCCCCCCCCCCCCCCCC(=O)O)C(=O)O)[C@@H](C)O)[C@@H](C)O)C(=O)N[C@@H](CC(C)C)C(=O)N1CCC[C@H]1C(=O)N1CCC[C@H]1C(=O)N[C@H](C(=O)N[C@@H](CC(N)=O)C(=O)N[C@H](C(=O)NCC(=O)N[C@@H](CO)C(=O)N[C@@H](CC(N)=O)C(=O)N[C@H](C(=O)N1C[C@H](O)C[C@H]1C(N)=O)[C@@H](C)O)C(C)C)[C@@H](C)O
EC50/nM, CRE-luciferase reporter in amylin receptor/CRE-luc CHO cells: 0.08 nM
Relative activity (the EC50 ratio of Cagrilintide to the compound): 113%

Next, values leading:

EC50/nM, CRE-luciferase reporter in amylin receptor/CRE-luc CHO cells: 0.08 nM
Relative activity (the EC50 ratio of Cagrilintide to the compound): 163%
B1: polypeptide derivative M49 (peptide)
peptide: {C20 diacid-γGlu}-ASQLSTAATQRLADFLRHSSTNLKPILPPTNVGSNT[Hyp]-NH2
SMILES: CC[C@H](C)[C@H](NC(=O)[C@@H]1CCCN1C(=O)[C@H](CCCCN)NC(=O)[C@H](CC(C)C)NC(=O)[C@H](CC(N)=O)NC(=O)[C@@H](NC(=O)[C@H](CO)NC(=O)[C@H](CO)NC(=O)[C@H](Cc1c[nH]cn1)NC(=O)[C@H](CCCNC(=N)N)NC(=O)[C@H](CC(C)C)NC(=O)[C@H](Cc1ccccc1)NC(=O)[C@H](CC(=O)O)NC(=O)[C@H](C)NC(=O)[C@H](CC(C)C)NC(=O)[C@H](CCCNC(=N)N)NC(=O)[C@H](CCC(N)=O)NC(=O)[C@@H](NC(=O)[C@H](C)NC(=O)[C@H](C)NC(=O)[C@@H](NC(=O)[C@H](CO)NC(=O)[C@H](CC(C)C)NC(=O)[C@H](CCC(N)=O)NC(=O)[C@H](CO)NC(=O)[C@H](C)NC(=O)CC[C@H](NC(=O)CCCCCCCCCCCCCCCCCCC(=O)O)C(=O)O)[C@@H](C)O)[C@@H](C)O)[C@@H](C)O)C(=O)N[C@@H](CC(C)C)C(=O)N1CCC[C@H]1C(=O)N1CCC[C@H]1C(=O)N[C@H](C(=O)N[C@@H](CC(N)=O)C(=O)N[C@H](C(=O)NCC(=O)N[C@@H](CO)C(=O)N[C@@H](CC(N)=O)C(=O)N[C@H](C(=O)N1C[C@H](O)C[C@H]1C(N)=O)[C@@H](C)O)C(C)C)[C@@H](C)O

EC50/nM, CRE-luciferase reporter in amylin receptor/CRE-luc CHO cells: 0.07 nM
Relative activity (the EC50 ratio of Cagrilintide to the compound): 186%
B2: polypeptide derivative M50 (peptide)
peptide: {C20 diacid-γGlu}-ASQLSTAATQRLADFLRHSSANLKPILPPTNVGSNT[Hyp]-NH2
SMILES: CC[C@H](C)[C@H](NC(=O)[C@@H]1CCCN1C(=O)[C@H](CCCCN)NC(=O)[C@H](CC(C)C)NC(=O)[C@H](CC(N)=O)NC(=O)[C@H](C)NC(=O)[C@H](CO)NC(=O)[C@H](CO)NC(=O)[C@H](Cc1c[nH]cn1)NC(=O)[C@H](CCCNC(=N)N)NC(=O)[C@H](CC(C)C)NC(=O)[C@H](Cc1ccccc1)NC(=O)[C@H](CC(=O)O)NC(=O)[C@H](C)NC(=O)[C@H](CC(C)C)NC(=O)[C@H](CCCNC(=N)N)NC(=O)[C@H](CCC(N)=O)NC(=O)[C@@H](NC(=O)[C@H](C)NC(=O)[C@H](C)NC(=O)[C@@H](NC(=O)[C@H](CO)NC(=O)[C@H](CC(C)C)NC(=O)[C@H](CCC(N)=O)NC(=O)[C@H](CO)NC(=O)[C@H](C)NC(=O)CC[C@H](NC(=O)CCCCCCCCCCCCCCCCCCC(=O)O)C(=O)O)[C@@H](C)O)[C@@H](C)O)C(=O)N[C@@H](CC(C)C)C(=O)N1CCC[C@H]1C(=O)N1CCC[C@H]1C(=O)N[C@H](C(=O)N[C@@H](CC(N)=O)C(=O)N[C@H](C(=O)NCC(=O)N[C@@H](CO)C(=O)N[C@@H](CC(N)=O)C(=O)N[C@H](C(=O)N1C[C@H](O)C[C@H]1C(N)=O)[C@@H](C)O)C(C)C)[C@@H](C)O

EC50/nM, CRE-luciferase reporter in amylin receptor/CRE-luc CHO cells: 0.05 nM
Relative activity (the EC50 ratio of Cagrilintide to the compound): 180%
B4: polypeptide derivative M48 (peptide)
peptide: {C20 diacid-γGlu}-ASQLSTAATQRLADFLRHSSSNLKPILPPTNVGSNT[Hyp]-NH2
SMILES: CC[C@H](C)[C@H](NC(=O)[C@@H]1CCCN1C(=O)[C@H](CCCCN)NC(=O)[C@H](CC(C)C)NC(=O)[C@H](CC(N)=O)NC(=O)[C@H](CO)NC(=O)[C@H](CO)NC(=O)[C@H](CO)NC(=O)[C@H](Cc1c[nH]cn1)NC(=O)[C@H](CCCNC(=N)N)NC(=O)[C@H](CC(C)C)NC(=O)[C@H](Cc1ccccc1)NC(=O)[C@H](CC(=O)O)NC(=O)[C@H](C)NC(=O)[C@H](CC(C)C)NC(=O)[C@H](CCCNC(=N)N)NC(=O)[C@H](CCC(N)=O)NC(=O)[C@@H](NC(=O)[C@H](C)NC(=O)[C@H](C)NC(=O)[C@@H](NC(=O)[C@H](CO)NC(=O)[C@H](CC(C)C)NC(=O)[C@H](CCC(N)=O)NC(=O)[C@H](CO)NC(=O)[C@H](C)NC(=O)CC[C@H](NC(=O)CCCCCCCCCCCCCCCCCCC(=O)O)C(=O)O)[C@@H](C)O)[C@@H](C)O)C(=O)N[C@@H](CC(C)C)C(=O)N1CCC[C@H]1C(=O)N1CCC[C@H]1C(=O)N[C@H](C(=O)N[C@@H](CC(N)=O)C(=O)N[C@H](C(=O)NCC(=O)N[C@@H](CO)C(=O)N[C@@H](CC(N)=O)C(=O)N[C@H](C(=O)N1C[C@H](O)C[C@H]1C(N)=O)[C@@H](C)O)C(C)C)[C@@H](C)O
